What all share (assay): cell_activity; human T cells, 1 ug mRNA, day 3
What all share (conditions): tags: N-terminal SV40 NLS

One series has as its target T1, B2M 13-14x.93 EEK66 (Artificial Sequence).
T1 chain: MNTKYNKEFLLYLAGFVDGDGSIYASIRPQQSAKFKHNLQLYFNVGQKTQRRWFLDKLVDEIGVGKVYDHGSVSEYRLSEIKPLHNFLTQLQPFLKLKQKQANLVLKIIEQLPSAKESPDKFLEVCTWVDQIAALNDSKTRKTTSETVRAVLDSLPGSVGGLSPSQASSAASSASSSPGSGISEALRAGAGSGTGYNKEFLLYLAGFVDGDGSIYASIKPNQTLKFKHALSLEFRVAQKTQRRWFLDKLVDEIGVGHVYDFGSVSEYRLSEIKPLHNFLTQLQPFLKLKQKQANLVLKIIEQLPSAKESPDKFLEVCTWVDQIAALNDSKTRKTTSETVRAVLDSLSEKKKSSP
As to the method:
(§1) To test these variants of B2M 13-14x.93, donor human T cells were stimulated with anti-CD3 and anti-CD28 antibodies for 3 days, then electroporated with mRNA encoding a given B2M 13-14 meganuclease (1 μg) using the Amaxa 4D-Nucleofector (Lonza) according to the manufacturer's instructions. At 3 days post-electroporation, cells were stained with an antibody recognizing β-2 microglobulin (BD Biosciences) and analyzed by flow cytometry.

Another series addresses T2, B2M 13-14x.93 QE (Artificial Sequence).
T2 chain: T1 chain with K66Y, E80Q
As to the method: as §1

For a further series, the target named is T3, B2M 13-14x.93 EQY66 (Artificial Sequence).
T3 chain: T1 chain with K66Y, E80Q, E271Q
As to the method:
as §1

A further series deals with T4, B2M 13-14x.93 QQY66 (Artificial Sequence).
T4 chain: T1 chain with K66Y, E80Q, E271Q
As to the method: as §1

A further series deals with T5, B2M 13-14x.93 EEY66 (Artificial Sequence).
T5 chain: T1 chain with K66Y
The method, then: as §1

Substitutions are numbered along the chain they refer to. In names and notes the source's numbering stands.

B1: B2M 13-14 recognition sequence (dsDNA)
DNA 1: CTATCTCTTGTACTACACTGAA
DNA 2: TTCAGTGTAGTACAAGAGATAG
Turning to B1, the activity is 3.84 % B2M-negative with B2M 13-14x.93 EEK66; 37 % B2M-negative with B2M 13-14x.93 QE; 21.4 % B2M-negative in the series with B2M 13-14x.93 EQY66; 19.2 % B2M-negative with B2M 13-14x.93 QQY66; 1.58 % B2M-negative in the series with B2M 13-14x.93 EEY66.

The values are drawn from patent publication US20210032664, “ENGINEERED MEGANUCLEASES WITH RECOGNITION SEQUENCES FOUND IN THE HUMAN BETA-2 MICROGLOBULIN GENE” (Precision Biosciences, Inc., published 2021).
